This data set in a line: Unfolding of apoA-I by guanidine hydrochloride. It counts as physicochemical. The method, then: FIG. 4. Unfolding of apoA-I in spherical (POPC)rHDL, (PLPC)rHDL, (PAPC)rHDL and (PDPC)rHDL. (POPC)rHDL, (PLPC)rHDL, (PAPC)rHDL, (PDPC)rHDL and lipid-free apoA-I were incubated with 0-8 M GdnHCl for 0 (◯), 5 ( ), and 24 (●) h. Values represent the mean of at least three determinations. Experimental errors for the wavelength of maximum fluorescence are ±1.0 nm.
FIG. 5. Kinetics of the unfolding of apoA-I in spherical (POPC)rHDL, (PLPC)rHDL, (PAPC)rHDL and (PDPC)rHDL. Spherical (POPC)rHDL ( ), (PLPC)rHDL ( ), (PAPC)rHDL (●), (PDPC)rHDL ( ) and lipid-free apoA-I (◯) were incubated with 3.5 M GdnHCl for 0-24 h. The wavelengths of maximum fluorescence represent the mean±sd of triplicate determinations.
The unfolding of apoA-I was determined by incubating the rHDL preparations at 25° C. for 0-24 h in the presence of 0-8.0 M guanidine hydrochloride (11).

For “lipid-free apoA-I: Apolipoprotein A-I purified from delipidated HDL of pooled human plasma, used as lipid-free comparator”, the “rate of unfolding of apoA-I” value (3.5 M GdnHCl, 0-24 h) is “unfolded rapidly and completely”. Under “25° C.”, the “concentration of GdnHCl required to achieve 50% unfolding of apoA-I” value was found to be 1.0 M.

Source of the values: US20040266662A1, “Spheroidal hdl particles with a defined phospholipid composition” (priority 2001, published 2004).
